Reference: paper PMC9482650, “Quantitative fragmentomics allow affinity mapping of interactomes” (Nature Communications, 2022)

T1: SNTG2, Q9NY99
T1 sequence (Q9NY99 68-166, limits assumed, looked up): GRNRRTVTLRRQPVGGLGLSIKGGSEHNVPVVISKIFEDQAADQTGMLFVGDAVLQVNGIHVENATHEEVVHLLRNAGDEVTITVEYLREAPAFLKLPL

T2: APBA3_1, O96018
T2 sequence (O96018 389-490, limits assumed, looked up): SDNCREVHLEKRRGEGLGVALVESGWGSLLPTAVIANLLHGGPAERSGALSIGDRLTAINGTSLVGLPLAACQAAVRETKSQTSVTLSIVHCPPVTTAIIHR

T3: PTPN13_1, Q12923
T3 sequence (Q12923 1088-1188, limits assumed, looked up): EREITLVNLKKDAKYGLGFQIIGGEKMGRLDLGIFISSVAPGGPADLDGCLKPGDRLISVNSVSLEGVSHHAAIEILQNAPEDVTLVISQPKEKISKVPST

T4: TJP3_3, O95049
T4 sequence (O95049 375-456, limits assumed, looked up): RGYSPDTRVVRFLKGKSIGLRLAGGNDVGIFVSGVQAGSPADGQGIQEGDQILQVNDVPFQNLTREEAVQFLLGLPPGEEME

T5: LIN7C, Q9NUP9
T5 sequence (Q9NUP9 88-185, limits assumed, looked up): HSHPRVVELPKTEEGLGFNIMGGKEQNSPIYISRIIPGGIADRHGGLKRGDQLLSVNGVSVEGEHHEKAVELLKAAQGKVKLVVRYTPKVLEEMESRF

T6: DVL3, Q92997
T6 sequence (Q92997 244-331, limits assumed, looked up): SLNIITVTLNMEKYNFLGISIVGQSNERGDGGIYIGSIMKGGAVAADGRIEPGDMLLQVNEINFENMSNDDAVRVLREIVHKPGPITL

T7: FRMPD1, Q5SYB0
T7 sequence (Q5SYB0 52-145, limits assumed, looked up): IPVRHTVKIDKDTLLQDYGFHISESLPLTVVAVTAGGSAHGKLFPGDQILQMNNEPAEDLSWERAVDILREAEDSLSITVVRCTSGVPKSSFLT

T8: PDZD7_3, Q9H5P4
T8 sequence (Q9H5P4 857-944, limits assumed, looked up): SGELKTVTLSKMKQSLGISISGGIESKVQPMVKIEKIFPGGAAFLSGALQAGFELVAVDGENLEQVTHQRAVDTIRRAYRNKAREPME

T9: HTRA3, P83110
T9 sequence (P83110 354-453, limits assumed, looked up): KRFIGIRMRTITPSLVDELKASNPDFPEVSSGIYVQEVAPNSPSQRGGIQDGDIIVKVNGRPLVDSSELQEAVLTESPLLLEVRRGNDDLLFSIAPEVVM

T10: SNTA1, Q13424
T10 sequence (Q13424 82-180, limits assumed, looked up): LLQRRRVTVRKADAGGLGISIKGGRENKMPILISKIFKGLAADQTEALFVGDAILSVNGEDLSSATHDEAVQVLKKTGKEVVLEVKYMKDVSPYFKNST

T11: TX1BP3, O14907
T11 sequence (O14907 10-122, limits assumed, looked up): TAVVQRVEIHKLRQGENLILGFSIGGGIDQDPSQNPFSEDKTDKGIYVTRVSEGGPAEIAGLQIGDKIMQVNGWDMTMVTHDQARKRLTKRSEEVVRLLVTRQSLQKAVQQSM

T12: RHPN1, Q8TCX5
T12 sequence (Q8TCX5 508-602, limits assumed, looked up): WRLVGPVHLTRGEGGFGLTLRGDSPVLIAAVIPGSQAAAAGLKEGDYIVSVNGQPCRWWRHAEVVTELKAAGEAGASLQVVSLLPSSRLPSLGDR


Columns and labels:
Assay in all cases: holdup assay
Parameters in all cases: key: below the threshold = too weak to quantify, mostly under pKd 3.1 to 4
Settings in all cases: plain residues with an end cap or a label only (N-terminal biotin on a linker: ado-ado)
[1] = target: FRMPD2_2, Q68DX3
[2] = target: PTPN3, P26045
[3] = target: T1, SNTG2, Q9NY99
[4] = target: Inadl_4, Q8NI35
[5] = target: FRMPD2_1, Q68DX3
[6] = target: T2, APBA3_1, O96018
[7] = target: PDZRN4_1, Q6ZMN7
[8] = target: T3, PTPN13_1, Q12923
[9] = target: T4, TJP3_3, O95049
[10] = target: T5, LIN7C, Q9NUP9
[11] = target: T6, DVL3, Q92997
[12] = target: T7, FRMPD1, Q5SYB0
[13] = target: MAGI2_4, Q86UL8
[14] = target: ARHGEF12, Q9NZN5-2
[15] = target: GRIP2_3, Q9C0E4
[16] = target: T8, PDZD7_3, Q9H5P4
[17] = target: T9, HTRA3, P83110
[18] = target: DLG2_3, Q15700
[19] = target: T10, SNTA1, Q13424
[20] = target: T11, TX1BP3, O14907
[21] = target: Inadl_5, Q8NI35
[22] = target: T12, RHPN1, Q8TCX5
[23] = target: FRMPD3, Q5JV73
[24] = target: GORASP1, Q9BQQ3
[25] = target: MAST1, Q9Y2H9
MAST1, Q9Y2H9, sequence (Q9Y2H9 962-1065): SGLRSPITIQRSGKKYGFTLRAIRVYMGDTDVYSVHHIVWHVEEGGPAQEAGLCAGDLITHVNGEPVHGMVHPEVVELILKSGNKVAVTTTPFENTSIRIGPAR

GORASP1, Q9BQQ3, sequence (Q9BQQ3 1-208): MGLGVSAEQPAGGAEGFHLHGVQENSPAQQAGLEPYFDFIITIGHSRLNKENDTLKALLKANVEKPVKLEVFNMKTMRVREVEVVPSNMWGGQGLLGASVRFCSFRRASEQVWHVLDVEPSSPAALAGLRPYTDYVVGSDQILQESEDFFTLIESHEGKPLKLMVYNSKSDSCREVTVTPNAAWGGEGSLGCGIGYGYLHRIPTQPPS
PDZRN4_1, Q6ZMN7, sequence (Q6ZMN7 213-318): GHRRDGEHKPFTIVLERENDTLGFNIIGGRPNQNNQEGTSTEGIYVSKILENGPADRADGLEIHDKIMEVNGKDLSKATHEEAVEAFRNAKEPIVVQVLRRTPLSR
FRMPD2_2, Q68DX3, sequence (Q68DX3 944-1038): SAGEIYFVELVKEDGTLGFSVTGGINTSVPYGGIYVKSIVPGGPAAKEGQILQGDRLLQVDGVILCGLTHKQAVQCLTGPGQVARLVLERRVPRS
Inadl_4, Q8NI35, sequence (Q8NI35 547-651): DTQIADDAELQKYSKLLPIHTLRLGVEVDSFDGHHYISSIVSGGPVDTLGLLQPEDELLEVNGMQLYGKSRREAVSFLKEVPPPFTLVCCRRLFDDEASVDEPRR
PTPN3, P26045, sequence (P26045 505-587): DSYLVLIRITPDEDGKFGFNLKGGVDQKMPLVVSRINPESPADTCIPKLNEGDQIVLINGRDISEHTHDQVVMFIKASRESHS
MAGI2_4, Q86UL8, sequence (Q86UL8 772-865): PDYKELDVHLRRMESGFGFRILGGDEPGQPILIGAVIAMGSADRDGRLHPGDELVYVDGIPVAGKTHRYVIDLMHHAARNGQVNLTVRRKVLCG
Inadl_5, Q8NI35, sequence (Q8NI35 673-780): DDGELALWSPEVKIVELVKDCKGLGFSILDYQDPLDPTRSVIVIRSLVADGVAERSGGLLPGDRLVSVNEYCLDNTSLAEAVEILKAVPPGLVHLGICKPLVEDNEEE
FRMPD3, Q5JV73, sequence (Q5JV73 12-100): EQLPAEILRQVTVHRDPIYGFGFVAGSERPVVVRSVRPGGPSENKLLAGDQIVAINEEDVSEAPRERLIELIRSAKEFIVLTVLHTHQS
GRIP2_3, Q9C0E4, sequence (Q9C0E4 238-339): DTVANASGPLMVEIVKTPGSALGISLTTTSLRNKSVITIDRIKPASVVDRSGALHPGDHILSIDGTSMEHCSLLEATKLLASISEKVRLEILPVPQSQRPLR
FRMPD2_1, Q68DX3, sequence (Q68DX3 770-861): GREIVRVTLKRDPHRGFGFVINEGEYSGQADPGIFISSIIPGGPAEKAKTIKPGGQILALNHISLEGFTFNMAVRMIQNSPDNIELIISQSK
ARHGEF12, Q9NZN5-2, sequence (Q9NZN5 other isoform, or with tags, fused parts or gaps): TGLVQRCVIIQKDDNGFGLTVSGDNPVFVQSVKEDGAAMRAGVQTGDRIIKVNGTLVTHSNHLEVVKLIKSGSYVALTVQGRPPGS

pKd [1] | pKd [2] | pKd [3] | pKd [4] | pKd [5] | pKd [6] | pKd [7] | pKd [8] | pKd [9] | pKd [10] | pKd [11] | pKd [12] | pKd [13] | pKd [14] | pKd [15] | pKd [16] | pKd [17] | pKd [18] | pKd [19] | pKd [20] | Binder | also measured
below the threshold | 5.05 | 4.09 | below the threshold | below the threshold | below the threshold | 4.66 | below the threshold | below the threshold | 4.28 | below the threshold | below the threshold | below the threshold | 4.53 | below the threshold | 4.8 | below the threshold | below the threshold | 4.7 | 4.1 | PELESKESVL [SLC1A4, P43007] | pKd [21]: below the threshold; pKd [22]: 4.49; pKd [23]: below the threshold; pKd [24]: below the threshold; pKd [25]: 4.71
below the threshold | 4.02 | below the threshold | below the threshold | below the threshold | below the threshold | below the threshold | below the threshold | below the threshold | below the threshold | below the threshold | below the threshold | below the threshold | 4.9 | below the threshold | 4.78 | below the threshold | below the threshold | below the threshold | 4.01 | SRPTKGPTLL [PLEKHH2, Q8IVE3] | pKd [21]: below the threshold; pKd [22]: below the threshold; pKd [23]: below the threshold; pKd [24]: 3.78; pKd [25]: below the threshold

Further lines, the binder ahead of its results:

Binder | pKd [1] | pKd [2] | pKd [3] | pKd [4] | pKd [5] | pKd [6] | pKd [7] | pKd [8] | pKd [9] | pKd [10] | pKd [11] | pKd [12] | pKd [13] | pKd [14] | pKd [15] | pKd [16] | pKd [17] | pKd [18] | pKd [19] | pKd [20] | also measured
LTAQEQPVYI [APBA1, Q02410] | below the threshold | 3.61 | below the threshold | below the threshold | below the threshold | below the threshold | below the threshold | below the threshold | 3.67 | below the threshold | 3.87 | below the threshold | below the threshold | below the threshold | below the threshold | below the threshold | 4.41 | 3.68 | below the threshold | below the threshold | pKd [21]: 3.86; pKd [22]: below the threshold; pKd [23]: below the threshold; pKd [24]: 3.87; pKd [25]: 3.58
EEDTAEKDEL [HSPA5, P11021] | below the threshold | below the threshold | below the threshold | below the threshold | below the threshold | below the threshold | below the threshold | below the threshold | below the threshold | below the threshold | below the threshold | below the threshold | 3.55 | below the threshold | below the threshold | below the threshold | below the threshold | below the threshold | below the threshold | below the threshold | pKd [21]: below the threshold; pKd [22]: below the threshold; pKd [23]: below the threshold; pKd [24]: below the threshold; pKd [25]: 3.98
PLDSQQHTEV [FAT1, Q14517] | 3.73 | 4.5 | 3.67 | below the threshold | below the threshold | below the threshold | 3.81 | below the threshold | below the threshold | below the threshold | below the threshold | below the threshold | below the threshold | 4.42 | below the threshold | 4.31 | below the threshold | below the threshold | 4.22 | 3.85 | pKd [21]: below the threshold; pKd [22]: 4.07; pKd [23]: below the threshold; pKd [24]: below the threshold; pKd [25]: 4.43
RQSILFSTEV [BCR, P11274] | 4.12 | 4.59 | 4.1 | below the threshold | below the threshold | below the threshold | 3.78 | below the threshold | below the threshold | 3.63 | below the threshold | below the threshold | 4.88 | 5.09 | 3.69 | 4.85 | 3.63 | 4 | 4.47 | 4.82 | pKd [21]: 3.49; pKd [22]: 3.94; pKd [23]: below the threshold; pKd [24]: below the threshold; pKd [25]: 4.97
